What was measured:
[1] = target: T1, APRIL (Acro Biosystems, Cat: APL-H52D1) (UniProt O75888 115-250, limits assumed); assay: ELISA, APRIL coated, anti-human Fc-HRP, OD450
T1 construct: also called ARPIL; A proliferation-inducing ligand
T1 sequence (looked up): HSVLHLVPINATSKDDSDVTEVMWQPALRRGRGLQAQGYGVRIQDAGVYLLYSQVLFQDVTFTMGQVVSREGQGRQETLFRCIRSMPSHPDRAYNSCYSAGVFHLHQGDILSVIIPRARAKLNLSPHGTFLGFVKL
Method: The capabilities of fusion proteins B606401, B637302, B746201, and B805201 to bind to BAFF and APRIL were assessed by ELISA as follows:
BAFF (PeproTech, Cat: 310-13) or ARPIL (Acro Biosystems, Cat: APL-H52D1) was diluted to 1 μg/mL with PBS, and a 96-well plate was coated with the dilution overnight at 4° C. The plate was washed with PBST and blocked with Blocking Buffer (PBST containing 1% BSA) at 37° C. for 1 h. The plate was tapped. The test antibodies were diluted with Blocking Buffer. Incubation was performed at 37° C. for 1.5 h. The plate was washed with PBST. An HRP-mouse anti-human Fc antibody (GenScript, Cat: A01854-200) was diluted with Blocking Buffer. Incubation was performed at 37° C. for 40 min. The plate was washed with PBST. 100 μL of TMB substrate solution (Biopanda, Cat: TMB-S-003) was added, and color development was performed at 37° C. for 3 min. 100 μL of ELISA stop solution (Solarbio, Cat: C1058) was added. OD450 was measured.
The EC₅₀ value for the capability of B637302 to bind to APRIL decreased to 1/7 to ⅙ of that of telitacicept.

[2] = target: recombinant human BAFF (R&D cat: 7537-BF-025/CF) (human, UniProt Q9Y275 134-285, limits assumed); assay: cell-based or functional assay
Chain of recombinant human BAFF (R&D cat: 7537-BF-025/CF) (Q9Y275 134-285 limits assumed): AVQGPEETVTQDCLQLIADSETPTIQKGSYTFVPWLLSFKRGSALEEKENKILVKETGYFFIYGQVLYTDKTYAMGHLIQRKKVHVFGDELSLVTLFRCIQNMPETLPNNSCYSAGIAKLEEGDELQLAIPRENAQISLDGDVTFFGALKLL

[3] = target: T1, APRIL (Acro Biosystems, Cat: APL-H52D1); assay: ELISA, APRIL coated, anti-human Fc-HRP
[4] = target: T2, type I interferon (IFN) receptor subunit 1 (IFNAR1) (human, UniProt P17181 28-557); assay: cell-based or functional assay
T2 sequence (looked up): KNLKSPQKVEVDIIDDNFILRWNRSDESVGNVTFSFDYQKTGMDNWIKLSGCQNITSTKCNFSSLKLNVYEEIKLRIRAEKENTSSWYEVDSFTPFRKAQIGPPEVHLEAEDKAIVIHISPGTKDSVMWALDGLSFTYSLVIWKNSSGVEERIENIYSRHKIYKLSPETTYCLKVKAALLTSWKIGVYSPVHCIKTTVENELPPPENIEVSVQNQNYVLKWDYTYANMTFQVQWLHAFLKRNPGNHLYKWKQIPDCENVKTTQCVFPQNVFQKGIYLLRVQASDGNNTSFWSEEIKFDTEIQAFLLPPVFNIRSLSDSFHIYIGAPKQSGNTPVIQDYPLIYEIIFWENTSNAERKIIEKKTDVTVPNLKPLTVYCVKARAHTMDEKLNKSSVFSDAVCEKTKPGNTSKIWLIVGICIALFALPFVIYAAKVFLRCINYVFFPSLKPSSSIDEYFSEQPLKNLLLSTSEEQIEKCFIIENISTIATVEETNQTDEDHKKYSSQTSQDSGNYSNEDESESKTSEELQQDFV

[5] = target: T2, type I interferon (IFN) receptor …; assay: cell-based or functional assay; remark: listed apart in the source

B1: B805201 (other)
heavy: EVQLVQSGAEVKKPGESLKISCKGSGYIFTNYWIAWVRQMPGKGLESMGIIYPGDSDIRYSPSFQGQVTISADKSITTAYLQWSSLKASDTAMYYCARHDIEGFDYWGRGTLVTVSSASTKGPSVFPLAPSSKSTSGGTAALGCLVKDYFPEPVTVSWNSGALTSGVHTFPAVLQSSGLYSLSSVVTVPSSSLGTQTYICNVNHKPSNTKVDKRVEPKSCDKTHTCPPCPAPEFEGGPSVFLFPPKPKDTLMISRTPEVTCVVVDVSHEDPEVKFNWYVDGVEVHNAKTKPREEQYNSTYRVVSVLTVLHQDWLNGKEYKCKVSNKALPASIEKTISKAKGQPREPQVYTLPPSRDELTKNQVSLTCLVKGFYPSDIAVEWESNGQPENNYKTTPPVLDSDGSFFLYSKLTVDKSRWQQGNVFSCSVMHEALHNHYTQKSLSLSPGKGGGGSGGGGSGGGGSSTSCREEQGEFYDHLLRDCISCASICGQHPKQCAAFCE
light: EIVLTQSPGTLSLSPGERATLSCRASQSVSSSFFAWYQQKPGQAPRLLIYGASSRATGIPDRLSGSGSGTDFTLTITRLEPEDFAVYYCQQYDSSAITFGQGTRLEIKRTVAAPSVFIFPPSDEQLKSGTASVVCLLNNFYPREAKVQWKVDNALQSGNSQESVTEQDSKDSTYSLSSTLTLSKADYEKHKVYACEVTHQGLSSPVTKSFNRGEC
notes: Anifrolumab with TACI-19-16 at the C-terminus of the heavy chain; also called B80521
Emax [1]: 2.85 nM
Flow cytometry proliferating B cell proportion (%), mean, BAFF-induced, drug at 10 nM [2]: 20.4%
Flow cytometry proliferating B cell proportion (%), mean, BAFF-induced, drug at 100 nM [2]: 24.3%
Flow cytometry proliferating B cell proportion (%), mean, BAFF-induced, drug at 1000 nM [2]: 15%
EC50 relative to that of telitacicept [3]: 0.333 ratio
IC50, inhibition of IFN-α-induced in vitro differentiation of B cells into plasma cells [4]: 6.21 nM
IC50 (nM), inhibition of the activity of type I interferons (IFN-β, HEK-Blue IFN-α/β cells) [5]: 1.63 nM

Reference: patent US20260125451A1 (JIANGSU HENGRUI PHARMACEUTICALS, published 2026)
